According to PMC5812673:

Target: Insulin Aspart (human)
Assay: hexamer dissociation kinetics

For Insulin Aspart (natural protein), the Hexamer t½ (dissociation of the Zn2+-hexamer) was 42.7 s.
